According to US20250027945A1:

Legend:
[1] = target: human RYK on the surface of human tumor cell lines (human) (UniProt P34925); assay: flow cytometry, REH cells (ALL), isotype matched control mAb, equal amount
[2] = target: human RYK on the surface of human tumor cell lines (human) (UniProt P34925); assay: flow cytometry, EW36 cells (NHL), isotype matched control mAb, equal amount
[3] = target: human RYK on the surface of human tumor cell lines (human) (UniProt P34925); assay: flow cytometry, K562 cells (CML), isotype matched control mAb, equal amount
[4] = target: human RYK on the surface of human tumor cell lines (human) (UniProt P34925); assay: flow cytometry, MEC1 cells (CLL), isotype matched control mAb, equal amount
[5] = target: human RYK on the surface of human tumor cell lines (human) (UniProt P34925); assay: flow cytometry, A549 cells (lung), isotype matched control mAb, equal amount
[6] = target: human RYK on the surface of human tumor cell lines (human) (UniProt P34925); assay: flow cytometry, H292 cells (lung), isotype matched control mAb, equal amount
[7] = target: human RYK on the surface of human tumor cell lines (human) (UniProt P34925); assay: flow cytometry, H446 cells (lung), isotype matched control mAb, equal amount
[8] = target: human RYK on the surface of human tumor cell lines (human) (UniProt P34925); assay: flow cytometry, H460 cells (lung), isotype matched control mAb, equal amount
[9] = target: human RYK on the surface of human tumor cell lines (human) (UniProt P34925); assay: flow cytometry, NALM6 cells (ALL), isotype matched control mAb, equal amount
[10] = target: human RYK on the surface of human tumor cell lines (human) (UniProt P34925); assay: flow cytometry, HT144 cells (skin), isotype matched control mAb, equal amount
[11] = target: human RYK on the surface of human tumor cell lines (human) (UniProt P34925); assay: flow cytometry, HT29 cells (colon), isotype matched control mAb, equal amount
[12] = target: human RYK on the surface of human tumor cell lines (human) (UniProt P34925); assay: flow cytometry, HS683 cells (brain), isotype matched control mAb, equal amount
[13] = target: human RYK on the surface of human tumor cell lines (human) (UniProt P34925); assay: flow cytometry, JEKO cells (mantle), isotype matched control mAb, equal amount
[14] = target: human RYK on the surface of human tumor cell lines (human) (UniProt P34925); assay: flow cytometry, MCF7 cells (breast), isotype matched control mAb, equal amount
[15] = target: human RYK on the surface of human tumor cell lines (human) (UniProt P34925); assay: flow cytometry, MINO cells (mantle), isotype matched control mAb, equal amount
[16] = target: human RYK on the surface of human tumor cell lines (human) (UniProt P34925); assay: flow cytometry, SW620 cells (colon), isotype matched control mAb, equal amount
[17] = target: human RYK on the surface of human tumor cell lines (human) (UniProt P34925); assay: flow cytometry, SW948 cells (colon), isotype matched control mAb, equal amount
[18] = target: human RYK on the surface of human tumor cell lines (human) (UniProt P34925); assay: flow cytometry, T24 cells (bladder), isotype matched control mAb, equal amount
[19] = target: human RYK on the surface of human tumor cell lines (human) (UniProt P34925); assay: flow cytometry, BT549 cells (breast), isotype matched control mAb, equal amount
[20] = target: human RYK on the surface of human tumor cell lines (human) (UniProt P34925); assay: flow cytometry, PC3 cells (prostate), isotype matched control mAb, equal amount
[21] = target: human RYK on the surface of human tumor cell lines (human) (UniProt P34925); assay: flow cytometry, SKBR3 cells (breast), isotype matched control mAb, equal amount
[22] = target: human RYK on the surface of human tumor cell lines (human) (UniProt P34925); assay: flow cytometry, T47-D cells (breast), isotype matched control mAb, equal amount
[23] = target: human RYK on the surface of human tumor cell lines (human) (UniProt P34925); assay: flow cytometry, NCI H226 cells (lung), isotype matched control mAb, equal amount
[24] = target: human RYK on the surface of human tumor cell lines (human) (UniProt P34925); assay: flow cytometry, SH-SY5Y cells (brain), isotype matched control mAb, equal amount
[25] = target: human RYK on the surface of human tumor cell lines (human) (UniProt P34925); assay: flow cytometry, SK-MEL-2 cells (skin), isotype matched control mAb, equal amount
[26] = target: human RYK on the surface of human tumor cell lines (human) (UniProt P34925); assay: flow cytometry, SK-MES-1 cells (lung), isotype matched control mAb, equal amount
[27] = target: human RYK on the surface of human tumor cell lines (human) (UniProt P34925); assay: flow cytometry, HS-578T cells (breast), isotype matched control mAb, equal amount
[28] = target: human RYK on the surface of human tumor cell lines (human) (UniProt P34925); assay: flow cytometry, NCI H1155 cells (lung), isotype matched control mAb, equal amount
[29] = target: human RYK on the surface of human tumor cell lines (human) (UniProt P34925); assay: flow cytometry, OVCAR4 cells (ovarian), isotype matched control mAb, equal amount
[30] = target: human RYK on the surface of human tumor cell lines (human) (UniProt P34925); assay: flow cytometry, DU-145 cells (prostate), isotype matched control mAb, equal amount
[31] = target: human RYK on the surface of human tumor cell lines (human) (UniProt P34925); assay: flow cytometry, SK-OV-3 cells (ovarian), isotype matched control mAb, equal amount
[32] = target: human RYK on the surface of human tumor cell lines (human) (UniProt P34925); assay: flow cytometry, CAPAN-1 cells (pancreas), isotype matched control mAb, equal amount
[33] = target: human RYK on the surface of human tumor cell lines (human) (UniProt P34925); assay: flow cytometry, CAPAN-2 cells (pancreas), isotype matched control mAb, equal amount
[34] = target: human RYK on the surface of human tumor cell lines (human) (UniProt P34925); assay: flow cytometry, MOLT4 cells (T-cell ALL), isotype matched control mAb, equal amount
[35] = target: human RYK on the surface of human tumor cell lines (human) (UniProt P34925); assay: flow cytometry, RAJI cells (Burkitt NHL), isotype matched control mAb, equal amount
[36] = target: human RYK on the surface of human tumor cell lines (human) (UniProt P34925); assay: flow cytometry, COLO 829 cells (melanoma), isotype matched control mAb, equal amount
[37] = target: human RYK on the surface of human tumor cell lines (human) (UniProt P34925); assay: flow cytometry, JURKAT cells (T-cell ALL), isotype matched control mAb, equal amount
[38] = target: human RYK on the surface of human tumor cell lines (human) (UniProt P34925); assay: flow cytometry, MDA-MB-231 cells (breast), isotype matched control mAb, equal amount
[39] = target: human RYK on the surface of human tumor cell lines (human) (UniProt P34925); assay: flow cytometry, RAMOS cells (Burkitt NHL), isotype matched control mAb, equal amount
[40] = target: human RYK on the surface of human tumor cell lines (human) (UniProt P34925); assay: flow cytometry, A673 cells (Ewings sarcoma), isotype matched control mAb, equal amount
[41] = target: human RYK on the surface of human tumor cell lines (human) (UniProt P34925); assay: flow cytometry, U937 cells (monocyte cancer), isotype matched control mAb, equal amount
[42] = target: human RYK on the surface of human tumor cell lines (human) (UniProt P34925); assay: flow cytometry, HELA cells (ovarian as printed), isotype matched control mAb, equal amount
[43] = target: human RYK on the surface of human tumor cell lines (human) (UniProt P34925); assay: flow cytometry, NCI H929 cells (melanoma as printed), isotype matched control mAb, equal amount
[44] = target: human RYK on the surface of human tumor cell lines (human) (UniProt P34925); assay: flow cytometry of dissociated primary triple-negative breast cancer PDX cells M0026 (T1), fluorochrome-conjugated isotype control mAb; count 15903

Chain of human RYK on the surface of human tumor cell lines (human) (P34925 46-607 limits assumed, form in doubt): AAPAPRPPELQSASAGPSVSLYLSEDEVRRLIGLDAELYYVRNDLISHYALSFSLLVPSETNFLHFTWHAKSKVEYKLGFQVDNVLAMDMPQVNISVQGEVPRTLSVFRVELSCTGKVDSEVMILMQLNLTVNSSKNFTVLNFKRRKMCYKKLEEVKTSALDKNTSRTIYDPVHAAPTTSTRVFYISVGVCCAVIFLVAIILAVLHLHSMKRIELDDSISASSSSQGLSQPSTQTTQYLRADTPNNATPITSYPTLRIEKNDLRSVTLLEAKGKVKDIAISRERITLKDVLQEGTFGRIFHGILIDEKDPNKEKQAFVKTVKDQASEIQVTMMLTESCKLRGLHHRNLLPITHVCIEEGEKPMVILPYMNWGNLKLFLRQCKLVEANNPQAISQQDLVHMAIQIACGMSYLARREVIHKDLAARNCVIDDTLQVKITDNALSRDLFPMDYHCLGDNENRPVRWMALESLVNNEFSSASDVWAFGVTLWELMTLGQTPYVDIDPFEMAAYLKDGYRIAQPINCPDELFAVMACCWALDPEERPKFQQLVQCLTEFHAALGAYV

For isotype matched control mAb (antibody), the MFI [1] was 7.4, the MFI [2] was 5.6 and the MFI [3] was 2.8. It also gave an MFI [4] of 4.3, an MFI [5] of 4.8 and an MFI [6] of 107. The MFI [7] was 23.3, the MFI [8] was 58 and the MFI [9] was 5.7. It also gave an MFI [10] of 126, an MFI [11] of 100 and an MFI [12] of 229. The MFI [13] was 3.9, the MFI [14] was 5.2 and the MFI [15] was 7.6. The MFI [16] was 5.6, the MFI [17] was 30.7 and the MFI [18] was 72.6. The MFI [19] was 197, the MFI [20] was 2.8 and the MFI [21] was 73.9. It also gave an MFI [22] of 25.7, an MFI [23] of 6 and an MFI [24] of 4.1. It also gave an MFI [25] of 7, an MFI [26] of 156 and an MFI [27] of 7.3. For the same substance, the MFI [28] was 6.2, the MFI [29] was 61 and the MFI [30] was 3.2. It also gave an MFI [31] of 5.6, an MFI [32] of 86.9 and an MFI [33] of 4.7. For the same substance, the MFI [34] was 5.1, the MFI [35] was 6.4 and the MFI [36] was 6.9. It also gave an MFI [37] of 5.7, an MFI [38] of 8.3 and an MFI [39] of 6.1. It also gave an MFI [40] of 52, an MFI [41] of 6.7 and an MFI [42] of 6.1. The MFI [43] was 43.8 and the Median : Comp-Alexa Fluor 647-A [44] was 39.9.
